This is an account of results in patent US20260250318A1, “COMPOSITIONS AND METHODS FOR CROSSING THE BLOOD BRAIN BARRIER” (VOYAGER THERAPEUTICS, INC., priority 2022, published 2026).

Experiment [1] relates to GPI anchored proteins (endogenous ALPL) on HeLa cells. As to the kind of experiment: Transduction of HeLa cells after PI/PLC removal of GPI anchored proteins. The format is cell-based, human. Particulars: 1E4 VG/cell. The protocol:
Endogenous ALPL was also removed from the surface of HeLa cells by treatment with increasing concentrations phosphatidylinositol-specific phospholipase C (PI/PLC), which cleaves GPI anchored proteins (0, 1, 3, 6, or 10 U/mL), for 1.5 hours at 37° C. Following PI/PLC treatment, cells were incubated with 1E4 VG/cell for three hours of AAV particles comprising the TTM-002 capsid variant or AAV particles comprising an AAV9 control capsid, cells were then washed to remove free virus, and luciferase activity was measured 24 hours post-transduction (RLU).

Experiment [2] deals with T1, His-tagged ALPL (Homo sapiens, UniProt P05186).
T1 sequence (P05186 18-501): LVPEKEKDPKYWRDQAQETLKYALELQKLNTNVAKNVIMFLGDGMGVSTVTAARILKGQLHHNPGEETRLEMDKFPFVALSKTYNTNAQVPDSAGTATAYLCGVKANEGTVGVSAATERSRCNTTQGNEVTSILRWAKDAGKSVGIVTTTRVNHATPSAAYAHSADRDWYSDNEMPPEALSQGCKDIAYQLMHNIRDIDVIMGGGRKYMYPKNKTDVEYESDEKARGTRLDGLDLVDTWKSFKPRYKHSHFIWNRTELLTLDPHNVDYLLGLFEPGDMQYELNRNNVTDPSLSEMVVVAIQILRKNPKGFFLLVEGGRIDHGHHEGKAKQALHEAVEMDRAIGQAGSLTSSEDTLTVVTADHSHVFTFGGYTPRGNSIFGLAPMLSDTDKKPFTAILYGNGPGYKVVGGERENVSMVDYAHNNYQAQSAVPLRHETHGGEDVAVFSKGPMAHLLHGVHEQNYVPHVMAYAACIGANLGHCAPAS
As to the kind of experiment: SPR (Biacore 8K) binding of capsids to ALPL. Particulars: for binding to ALPL by SPR: AAV 0.0625 to 1 nM over ALPL, or ALPL 15.625 to 250 nM over capsid. The protocol: Direct binding and specific interaction of the TTM-002 capsid variant and the AAV9 capsid control to ALPL was measured by Surface Plasmon Resonance (SPR) on a Biacore 8K instrument. His-tagged ALPL was first captured on a CM5 sensor chip pre-immobilized with anti-His antibody by passing 5 μg/ml of ALPL for 240 seconds (FIGS. 2A-2B). AAV9 or TTM-002 and buffer were then passed over ALPL to monitor rates of association and dissociation, respectively. […] The surface was regenerated using two pulses of 10 mM glycine pH 1.7 for 30 seconds. A flow rate of 30 μl/min was used for all steps and the running buffer used was PBS-P+. In a second experiment, the AAV9 control or TTM-002 capsid variant were immobilized on the CM5 sensor chip (FIGS. 2C-2D). His-tagged ALPL and buffer were then passed over the AAV9 control or TTM-002 capsid variant to monitor rates of association and dissociation. The concentration of ALPL used was from 15.625 to 250 nM (e.g., 15.625 nM, […], 62.5 nM, 125 nM, and 250 nM; FIGS. 2C-2D).
For this experiment, the density of TTM-002 on the chip was approximately 6300RU.
Additional experiments were performed varying the density of the TTM-002 capsid variant on the chip. His-tagged ALPL and buffer were then passed over the AAV9 control or TTM-002 capsid variant to monitor rates of association and dissociation.
In general terms: In SPR one partner is held on a chip, and binding of the other changes the refractive index at the surface.

In a further experiment the test system is brain. As to the kind of experiment: NGS fold enrichment of synthetic library (passage 3) in BALB/c mice, first cross-species screen. The note with it: synthetic library passage 3, intravenous, RNA NGS, brain of BALB/c mice, relative to wild-type AAV9. It is filed as in vivo. Summed up: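 Fold enrichment versus wild-type AAV9 was derived by NGS of RT-PCR-amplified RNA from nervous tissue, collected e.g. 28 days after IV dosing […]. The library (passage 3) was given to two NHPs aged 2-4 years and to 6-8-week BALB/c and C57Bl/6 mice (n=3 each).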

Experiment [3] deals with HEK 293T cells transfected with pCMV6 negative control. As to the kind of experiment: Binding and internalization assay in HEK 293T cells transfected with pCMV6 negative control (viral genomes). It is filed as cell-based. Particulars: pCMV6 transfected cells (negative control, reference). The protocol:
Binding and internalization of AAV capsid variants comprising the TTM-001 capsid variant, the TTM-002 capsid variant, or the AAV9 control capsid was also investigated in cells engineered to express ALPL. HEK 293T cells were transfected via calcium phosphate transfection with a plasmid expressing ALPL, an AAVR positive control, or a pCMV6 negative control. At 24 hours post-transfection, the HEK 293T cells expressing the ALPL receptor were incubated with an AAV particle comprising the TTM-001 capsid variant, the TTM-002 capsid variant, or an AAV9 control capsid protein, expressing a GFP payload. At 2 or 3-hours post-incubation, cells were washed to remove unbound AAV particles and DNA was extracted to quantify viral genomes.

In experiment [4] the target is T1, His-tagged ALPL. As to the kind of experiment: SPR pH dependence of capsid-ALPL interaction. The note with it: association at pH 7.4, dissociation at pH 7.4 or 5.5. The format is binding. An excerpt: The TTM-002 capsid variant was immobilized on the CM5 sensor chip. His-tagged ALPL and buffer was then passed over the AAV9 control or TTM-002 capsid variant to monitor the rate of association at pH 7.4 and dissociation, respectively, at a pH of 7.4 (FIG. 3A) or a pH of 5.5 (FIG. 3B).

Where [5] appears, read: TTM-002 on chip approximately 6300RU.

Consider “AAV9: wild-type AAV9 control capsid [reference compound]”, for which the “Transduction in HeLa as measured by luciferase assay (RLU) following treatment with PI/PLC” value came to 239.3 RLU in experiment [1] (PI/PLC 0 U/mL); 193.7 RLU in experiment [1] (PI/PLC 1 U/mL); 222 RLU in experiment [1] (PI/PLC 3 U/mL); 207.7 RLU in experiment [1] (PI/PLC 6 U/mL); 212 RLU in experiment [1] (PI/PLC 10 U/mL). In addition, the “binding to ALPL by SPR” value in the experiment with His-tagged ALPL [2] is “no binding”.

B1: TTM-001: AAV9 capsid variant comprising SPHSKA (SEQ ID NO: 941) in loop IV (protein)
chain 1: MAADGYLPDWLEDNLSEGIREWWALKPGAPQPKANQQHQDNARGLVLPGYKYLGPGNGLDKGEPVNAADAAALEHDKAYDQQLKAGDNPYLKYNHADAEFQERLKEDTSFGGNLGRAVFQAKKRLLEPLGLVEEAAKTAPGKKRPVEQSPQEPDSSAGIGKSGAQPAKKRLNFGQTGDTESVPDPQPIGEPPAAPSGVGSLTMASGGGAPVADNNEGADGVGSSSGNWHCDSQWLGDRVITTSTRTWALPTYNNHLYKQISNSTSGGSSNDNAYFGYSTPWGYFDFNRFHCHFSPRDWQRLINNNWGFRPKRLNFKLFNIQVKEVTDNNGVKTIANNLTSTVQVFTDSDYQLPYVLGSAHEGCLPPFPADVFMIPQYGYLTLNDGSQAVGRSSFYCLEYFPSQMLRTGNNFQFSYEFENVPFHSSYAHSQSLDRLMNPLIDQYLYYLSKTINGSGSPHSKAQNQQTLKFSVAGPSNMAVQGRNYIPGPSYRQQRVSTTVTQNNNSEFAWPGASSWALNGRNSLMNPGPAMASHKEGEDRFFPLSGSLIFGKQGTGRDNVDADKVMITNEEEIKTTNPVATESYGQVATNHQSAQAQAQTGWVQNQGILPGMVWQDRDVYLQGPIWAKIPHTDGNFHPSPLMGGFGMKHPPPQILIKNTPVPADPPTAFNKDKLNSFITQYSTGQVSVEIEWELQKENSKRWNPEIQYTSNYYKSNNVEFAVNTEGVYSEPRPIGTRYLTRNL
chain 2: GSGSPHSKAQNQQT
On to B1, for which, in the experiment on brain, the “Fold enrichment over AAV9 in the brain of Mice (BALB/c)” value was 41.304 fold. The “Fold change in viral gene expression (2^-ΔΔCT) relative to pCMV6 transfected cells” value in experiment [3] was 1 fold.

B2: TTM-002: AAV9 capsid variant comprising HDSPHK (SEQ ID NO: 2) in loop IV (protein)
chain 1: MAADGYLPDWLEDNLSEGIREWWALKPGAPQPKANQQHQDNARGLVLPGYKYLGPGNGLDKGEPVNAADAAALEHDKAYDQQLKAGDNPYLKYNHADAEFQERLKEDTSFGGNLGRAVFQAKKRLLEPLGLVEEAAKTAPGKKRPVEQSPQEPDSSAGIGKSGAQPAKKRLNFGQTGDTESVPDPQPIGEPPAAPSGVGSLTMASGGGAPVADNNEGADGVGSSSGNWHCDSQWLGDRVITTSTRTWALPTYNNHLYKQISNSTSGGSSNDNAYFGYSTPWGYFDFNRFHCHFSPRDWQRLINNNWGFRPKRLNFKLFNIQVKEVTDNNGVKTIANNLTSTVQVFTDSDYQLPYVLGSAHEGCLPPFPADVFMIPQYGYLTLNDGSQAVGRSSFYCLEYFPSQMLRTGNNFQFSYEFENVPFHSSYAHSQSLDRLMNPLIDQYLYYLSKTINGHDSPHKSGQNQQTLKFSVAGPSNMAVQGRNYIPGPSYRQQRVSTTVTQNNNSEFAWPGASSWALNGRNSLMNPGPAMASHKEGEDRFFPLSGSLIFGKQGTGRDNVDADKVMITNEEEIKTTNPVATESYGQVATNHQSAQAQAQTGWVQNQGILPGMVWQDRDVYLQGPIWAKIPHTDGNFHPSPLMGGFGMKHPPPQILIKNTPVPADPPTAFNKDKLNSFITQYSTGQVSVEIEWELQKENSKRWNPEIQYTSNYYKSNNVEFAVNTEGVYSEPRPIGTRYLTRNL
chain 2: GHDSPHKSGQNQQT
Usually koff stands for the rate constant with which the complex falls apart. A lower koff goes with a long-lived complex. Usually kon stands for a measure of how fast the partners come together. Read a low kon as slow association. On to B2, for which, in the experiment on brain, the “Fold enrichment over AAV9 in the brain of Mice (BALB/c)” value is 49.760 fold. Besides, in experiment [1] (HeLa, luciferase 24 hours), the “transduction after PI/PLC treatment” value is “significantly decreased transduction”. Further, the “Transduction in HeLa as measured by luciferase assay (RLU) following treatment with PI/PLC” value in experiment [1] (PI/PLC 0 U/mL) stood at 1731 RLU; in experiment [1] (PI/PLC 1 U/mL), 474 RLU; in experiment [1] (PI/PLC 3 U/mL) it was 441 RLU; in experiment [1] (PI/PLC 6 U/mL), 396.7 RLU; in experiment [1] (PI/PLC 10 U/mL), 239.3 RLU. Besides, the “binding to ALPL by SPR” value in the experiment with His-tagged ALPL [2] is “capable of directly and specifically binding to ALPL in a dose dependent manner”. In addition, the off-rate constant (koff) turned out to be 0.0051 s⁻¹ in the experiment with His-tagged ALPL [2] (Density of TTM-002 127 RU on chip); 0.00185 s⁻¹ with His-tagged ALPL [2] (Density of TTM-002 2400 RU on chip); 0.00127 s⁻¹ with His-tagged ALPL [2] (Density of TTM-002 6300 RU on chip); 0.00116 s⁻¹ in the experiment with His-tagged ALPL [2] (Density of TTM-002 6680 RU on chip); 0.00127 s⁻¹ with His-tagged ALPL [2] (setting [5]). Also, the on-rate (kon) with His-tagged ALPL [2] (setting [5]) is 32000 M⁻¹ s⁻¹. The “rate of dissociation from ALPL, pH 7.4 vs 5.5” value with His-tagged ALPL [4] was “increased when the pH was decreased from 7.4 to 5.5”. The “Fold change in viral gene expression (2^-ΔΔCT) relative to pCMV6 transfected cells” value in experiment [3] is given as 1 fold.
